Substitutions are numbered along the chain they refer to. Names may count otherwise.

The labels stand for the following.
B1: LAH31 with light chain position 92 reverted to germline (R92L) (antibody, V domains shown)
VH: QVQLEQSGAEVKKPGSSVKVSCKASGPMFSRSAFSWVRQAPGQGLEWMGRIIPTVDLKNYAQKFQGRVTFTADKSTATSYMELRSLKSEDTAVYYCARMGSGSSYYGMDVWGLGTTVTVSS
VL: DIVMTQSPLSLPVIPGEPASISCRSSQSLLQSNGNNYLDWYLQKPGQSPQLLIYLGSNRASGVPDRFSGSGSGTDFTLTISRVEAEDVGVYYCLQALQSSVLTFGGGTKLEIK
notes: IgG1
B2: LAH31 mouse IgG2c LALA-PG mutant (antibody, V domains shown)
VH: B1 VH
VL: B1 VL with L97R
B3: LAH31 mouse IgG2c KA mutant (antibody, V domains shown)
VH: B1 VH
VL: B1 VL with L97R
B4: LAH31 mouse IgG2c LALA mutant (antibody, V domains shown)
VH: B1 VH
VL: B1 VL with L97R
B5: LAH31 with light chain position 95 reverted to germline (Ser95 to Pro95) (antibody, V domains shown)
VH: B1 VH
VL: B1 VL with L97R, S100P
B6: LAH31 with light chain position 94 reverted to germline (Ser94 to Thr94) (antibody, V domains shown)
VH: B1 VH
VL: B1 VL with L97R, S99T

The first assay deals with X31 (H3N2) trimeric full-length HA (prefusion stabilized HA) (influenza A virus X31 (H3N2), biotin (biotinylated for capture on streptavidin)). The assay is described as follows: ELISA. The settings on record: both partners purified. (In general: In an ELISA, binding on a coated surface is turned into a signal by an enzyme label.)
As to B1, the binding result was “binds”.

With B2, the binding result is on record as “binds”. For B3, the binding result was “binds”. The same measure, in the same setting: with B4 the entry was “binds”.

Consider B5, for which the binding result is reported as “binds”. Still for that read-out and setting: with B6 the entry was “binds”.

The target of the next assay is HA of H1 A/Narita/1/2009 (influenza A virus A/Narita/1/2009 (H1)). The assay is described as follows: ELISA. Conditions: both partners purified.
For the molecule B5, the binding result is “binds”. The same measure, in the same setting: with B6 the entry was “binds”.

The record behind these values is PMC10411744 (PLOS Pathogens, 2023).
